Measurements reported in the supplement of paper PMC6757056.
± gives the standard deviation of the averaged measurements.

B1: library; a variant is named by its letters at N, in order (parent)
chain: GCUGUCACCGGUGCUUGGUACGUUAUAUUCAGCCGGUCUGAUGAGUCUNNNNNNAGACGAAACAGC

Columns and labels:
[1] = variants of: B1; assay: FACS-Seq fitted mean relative fluorescence mCherry/BFP without ligand (log10 relative fluorescence); HEK293T overexpressing SLC46A1; higher = higher reporter protein expression; settings: without (6R,S)-folinic acid; ligand present: no
Procedure: (§1)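 Hammerhead (sTRSV) ribozyme switch libraries with a ligand aptamer grafted on stem I and a randomized N4-6 loop II, cloned into the 3' UTR of mCherry and transiently transfected into HEK293T cells; RNA-Seq 72 h post transfection with ligand added 1 h before transfection; RNA read count / plasmid DNA read count normalized to the non-cleaving sTRSVctl (x100), log10; sequences with >100 DNA reads. FACS-Seq: lentiviral library sorted into 6 bins after 48 h ligand, log-normal fit mean of mCherry/BFP scaled to controls. Printed sequences are partial switch sequences.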

[2] = variants of: B1; assay: normalized RNA/DNA level without ligand (relative to sTRSVctl = 100) (log10 (% of sTRSVctl)); HEK293T overexpressing SLC46A1; higher = less ribozyme self-cleavage, higher mRNA level; settings: without (6R,S)-folinic acid; ligand present: no
Procedure: as §1

[3] = variants of: B1; assay: FACS-Seq fitted mean relative fluorescence mCherry/BFP with ligand (log10 relative fluorescence); HEK293T overexpressing SLC46A1; ligand concentration (+) FACS-Seq: 6 mM; higher = higher reporter protein expression; settings: with (6R,S)-folinic acid; ligand present: yes
Procedure: as §1

[4] = variants of: B1; assay: normalized RNA/DNA level with ligand (relative to sTRSVctl = 100) (log10 (% of sTRSVctl)); HEK293T overexpressing SLC46A1; ligand concentration (+) RNA-Seq: 6 mM; higher = less ribozyme self-cleavage, higher mRNA level; settings: with (6R,S)-folinic acid; ligand present: yes
Procedure: as §1

| Variant | FACS-Seq fitted mean (log10) [1] | normalized RNA/DNA level without ligand (log10) [2] | FACS-Seq fitted mean (log10) [3] | normalized RNA/DNA level with ligand (log10) [4] |
| --- | --- | --- | --- | --- |
| AACAGG | 0.475 ± 0.12 | 1.904 ± 0.01 | 0.351 ± 0.0077 | 2 ± 0.031 |
| CAGGAC | 0.301 ± 0.073 | 1.97 ± 0.022 | 0.0891 ± 0.079 | 1.97 ± 0.078 |
| UACCUC | 0.402 ± 0.35 | 2.052 ± 0.0094 | 0.585 ± 0.43 | 2.04 ± 0.049 |
| UACCUG | 0.402 ± 0.083 | 1.86 ± 0.039 | 0.39 ± 0.14 | 1.99 ± 0.052 |
| AAGCAU | 0.218 ± 0.067 | 1.953 ± 0.019 | 0.102 ± 0.024 | 2.01 ± 0.039 |
| AAGCAA | 0.352 ± 0.078 | 1.964 ± 0.015 | 0.361 ± 0.1 | 1.994 ± 0.012 |
| UAGCGG | -0.127 ± 0.027 | 1.671 ± 0.0027 | 0.217 ± 0.06 | 1.96 ± 0.023 |
| GAGACU | 0.361 ± 0.041 | 2.022 ± 0.0074 | 0.232 ± 0.024 | 2.02 ± 0.022 |
| CACGCA | 0.164 ± 0.12 | 2.025 ± 0.013 | 0.119 ± 0.063 | 2.024 ± 0.011 |
| CACGAU | 0.217 ± 0.11 | 1.99 ± 0.027 | 0.334 ± 0.6 | 2.01 ± 0.021 |
| GACUCC | 0.513 ± 0.089 | 2.053 ± 0.012 | 0.583 ± 0.11 | 2.06 ± 0.013 |
| CAGCCU | 0.13 ± 0.12 | 2.052 ± 0.016 | -0.235 ± 0.22 | 2.05 ± 0.061 |
| UAGAUG | 0.3 ± 0.084 | 1.702 ± 0.0024 | 0.477 ± 0.13 | 1.97 ± 0.043 |
| UACAGA | 0.358 ± 0.072 | 1.913 ± 0.011 | 0.548 ± 0.15 | 1.99 ± 0.037 |
| UACAGU | 0.183 ± 0.13 | 1.92 ± 0.021 | 0.133 ± 0.26 | 1.994 ± 0.0074 |
| UACAGG | 0.254 ± 0.021 | 1.661 ± 0.0093 | 0.489 ± 0.051 | 1.96 ± 0.033 |
| AACCCC | 0.581 ± 0.12 | 2.013 ± 0.0022 | 0.492 ± 0.041 | 1.99 ± 0.045 |
| UACGAC | -0.293 ± 0.061 | 2.013 ± 0.0052 | -0.283 ± 0.015 | 2.01 ± 0.039 |
